In assay [1] the target is Soluble FcγRIIb extracellular domain with C-terminal 10xHis tag (UniProt P31994). Briefly: SPR; IIb-Fold / IIaR-Fold.
Assay [2] has as its target Soluble FcγRIIaR extracellular domain with C-terminal 10xHis tag (UniProt P12318). Nature of the assay: SPR, antibody captured on immobilised HER2, soluble receptor as analyte. (SPR reads the build-up and loss of mass on a sensor chip optically.)
In assay [3] the target is Soluble FcγRIIb extracellular domain with C-terminal 10xHis tag (UniProt P31994). The description is as above.
For assay [4], the target named is Soluble FcγRIIaR extracellular domain with C-terminal 10xHis tag (UniProt P12318). Nature of the assay: SPR; fold change in affinity over WT v16463.
The target in assay [5] is Soluble FcγRIIb extracellular domain with C-terminal 10xHis tag (UniProt P31994). Nature of the assay: SPR; fold change in affinity over WT v16463.
In assay [6] the target is Biotinylated FcγRIIb extracellular domain-Fc fusion (human IgG1 Fc with L234A_L235A_D265S) (human) (UniProt P31994). Nature of the assay: competition electrochemiluminescence, antibody on HER2-coated plate, biotinylated FcγRIIb-Fc; competitor FcγRIIaR-Fc at 10x.
Assay [7] has as its target FcγRIIIaV (UniProt P08637). Nature of the assay: SPR (ProteOn XPR36), antibody captured on immobilized HER2, FcγR as analyte, equilibrium fit.
The target of assay [8] is FcγRIIb (UniProt P31994). The assay is described as above.
Assay [9] deals with FcγRIIaR (UniProt P12318). The assay is described as above.
Assay [10] concerns the target FcγRI (UniProt P12314). The description is as above.
The target in assay [11] is FcγRIIaR (UniProt P12318). Nature of the assay: SPR (Protocol 2, Biacore 4000), antibody captured on immobilised HER2, FcγR as analyte.
For assay [12], the target named is Soluble FcγRIIaR extracellular domain with C-terminal 10xHis tag (UniProt P12318). Nature of the assay: SPR Protocol 2, OAA captured on HER2 chip, receptor as analyte; KD(WT v16463)/KD(variant).
Assay [13] concerns the target Soluble FcγRIIb extracellular domain with C-terminal 10xHis tag (UniProt P31994). Described as above.
Assay [14] shares this target. Briefly: SPR Protocol 2; IIb selectivity relative to control v27294.
Assay [15] has the same target. Briefly: SPR Protocol 2; ratio IIb-Fold/IIaR-Fold (FcγRIIb against FcγRIIaR).
Assay [16] shares this target. Briefly: SPR Protocol 2; IIb-Fold relative to control v27294.
For assay [17], the target named is FcγRIIb (UniProt P31994). Nature of the assay: SPR imaging (IBIS MX96), antibody spotted on chip, soluble receptor as analyte, kinetic fit, 25 C, pH 7.4.
For assay [18], the target named is FcγRIIaR (UniProt P12318). The assay is described as above.
For assay [19], the target named is FcγRIIaH (UniProt P12318). Nature of the assay: SPR (ProteOn XPR36), antibody captured on immobilized HER2, FcγR as analyte, equilibrium fit.
Assay [20] addresses Soluble FcγRIIb extracellular domain with C-terminal 10×His tag (UniProt P31994). Nature of the assay: SPR, antibody captured on HER2 chip, receptor as analyte.
Assay [21] addresses Soluble FcγRIIaR extracellular domain with C-terminal 10×His tag (UniProt P12318). The description is as above.
Assay [22] addresses Soluble FcγRIIb extracellular domain with C-terminal 10×His tag (UniProt P31994). Nature of the assay: SPR; ratio of IIb-Fold to IIaR-Fold (FcγRIIb against FcγRIIaR).
Assay [23] shares this target. Nature of the assay: SPR; KD ratio against wild-type v16463.
For assay [24], the target named is Soluble FcγRIIaR extracellular domain with C-terminal 10×His tag (UniProt P12318). Briefly: SPR; KD ratio against wild-type v16463.
The target in assay [25] is Soluble FcγRIIb extracellular domain with C-terminal 10xHis tag (UniProt P31994). Nature of the assay: SPR (Biacore 4000), antibody captured on immobilised HER2, receptor as analyte.
The target in assay [26] is FcγRIIb (UniProt P31994). Briefly: SPR; ratio of IIb-fold to IIaR-fold, FcγRIIaR as comparison receptor.
Assay [27] addresses FcγRIIb (UniProt P31994). Nature of the assay: SPR; trastuzumab FSA variant against soluble FcγRIIb; KD ratio to wild-type FSA v21653.
Assay [28] has as its target FcγRIIaR (UniProt P12318). Briefly: SPR; trastuzumab FSA variant against soluble FcγRIIaR; KD ratio to wild-type FSA v21653.
Assay [29] deals with Recombinant human C1q (C1740, Sigma Aldrich) (human) (UniProt P02745). Briefly: ELISA; antibody coated on plate, human C1q added; signal as % of wild-type. A general note: An ELISA detects its analyte on a solid surface through an enzyme-linked reagent.
The target of assay [30] is Soluble FcγRIIaR extracellular domain with C-terminal 10xHis tag (UniProt P12318). Briefly: SPR, antibody captured on HER2, receptor as analyte.
Assay [31] concerns the target Soluble FcγRIIb extracellular domain with C-terminal 10xHis tag (UniProt P31994). The assay is described as above.
Assay [32] shares this target. Briefly: SPR; ratio of the fold for FcγRIIb to the fold for FcγRIIaR.
The target of assay [33] is Biotinylated FcγRIIb extracellular domain-Fc fusion (human IgG1 Fc L234A_L235A_D265S) (human) (UniProt P31994). Briefly: competition electrochemiluminescence (MSD), antibody on HER2-coated plate, biotinylated FcγRIIb-Fc; competitor FcγRIIaR-Fc.

The source of these data is patent US20240294646A1.

In turn, “v12, IIb-specific comparator with symmetrical E233D_G237D_P238D_H268D_P271G_A330R (Mimoto et al. 2013) (antibody)” displayed an IIb Selectivity in [1] of 80.5. In addition, the equilibrium dissociation constant (Kd) (usually the free concentration of one partner at which half of the binding sites on the other are occupied at equilibrium, for simple one-to-one binding) was 220 nM in assay [2] and 13 nM in assay [3]. In addition, the IIaR-fold in assay [4] turned out to be 1.4 fold. The substance further showed an IIb-Fold in [5] of 112 fold. Also, in assay [6], the ELISA (% of non-competed FcγRIIb signal in presence of 10x FcγRIIa) worked out at 100%.

Consider “Variant 31521 (trastuzumab full-size antibody, knobs-into-holes heterodimeric IgG1 Fc, no CH2 mutations; parental scaffold)”, for which the Kd is 1890 nM in [7], 7740 nM in [8], 2590 nM in [9] and 0.098 nM in assay [10].

In assay [11], “Variant 16463, wild-type one-armed antibody (Scaffold 2: one trastuzumab Fab and heterodimeric IgG1 Fc)” displayed an equilibrium dissociation constant (Kd) of 360 nM.

The substance “Variant 26752 (A_E272Y_strat2), one-armed trastuzumab antibody with heterodimeric IgG1 Fc” came in with an IIaR-fold (fold change in affinity over wild-type) in assay [12] of 4.6 fold. The IIb-fold (fold change in affinity over wild-type) in assay [13] came to 79.8 fold. For the same substance, in assay [14], the IIb Selectivity Improvement wrt Control came to 1.3 fold. Further, the IIb Selectivity (IIb-Fold/IIaR-Fold) in [15] came to 17.5 fold. This substance registered an IIb-Fold wrt Control in assay [16] of 0.9 fold.

Turning to “Variant 21653 (WT), anti-HER2 (trastuzumab) full-size antibody”, the Kd in assay [17] amounted to 2000 nM; in assay [18] it was 630 nM.

As for “Variant 31509 (trastuzumab full-size antibody, Azymetric heterodimeric IgG1 Fc, no CH2 mutations; parental scaffold)”, the Kd in [7] amounted to 1190 nM; in assay [19], 1150 nM; in assay [8], 4200 nM; in assay [9] it was 1520 nM; in [10], 0.067 nM.

In turn, “Variant 26751 (A_E272W_strat2), one-armed trastuzumab antibody with heterodimeric IgG1 Fc” displayed an IIaR-fold (fold change in affinity over wild-type) in assay [12] of 5.4 fold. Besides, in assay [13], the IIb-fold (fold change in affinity over wild-type) was 60.1 fold. In assay [14], the IIb Selectivity Improvement wrt Control was determined as 0.8 fold. Also, the IIb Selectivity (IIb-Fold/IIaR-Fold) in assay [15] stood at 11.2 fold. The substance also registered an IIb-Fold wrt Control in assay [16] of 0.6 fold.

As to “Variant 21653 (WT), anti-CD40 (Chi Lob 7/4) full-size antibody”, the results for the Kd in assay [17] and in assay [18] were 2100 nM and 560 nM, respectively.

With “Variant 16463, wild-type one-armed trastuzumab antibody with heterodimeric IgG1 Fc (Scaffold 2)”, the Kd in [20] is 1400 nM; in assay [21] it was 310 nM. The IIb Selectivity (IIb-Fold/IIaR-Fold) in assay [22] was 1 fold. Further, the IIb-Fold in assay [23] amounted to 1 fold. In addition, in [24], the IIaR-fold came out at 1 fold.

For the substance “v27362, strat3_control (A_G236N_G237A B_G236D_G237F_S239D_S267V_H268D) (antibody)”, the Kd in assay [25] came out at 150 nM.

As for “Variant 32293, trastuzumab full-size antibody (chain A S267A_strat2; chain B D329*I_I332L-strat1)”, in [26], the IIb Selectivity (IIb-Fold/IIaR-Fold) was 58 fold. In addition, the IIb-fold (fold change in affinity over wild-type) in [27] is 323 fold. Also, the IIaR-fold (fold change in affinity over wild-type) in assay [28] worked out at 6 fold. Also, in [29], the C1q Binding (% WT) amounted to 2 % WT.

Take “Variant 31522 (trastuzumab full-size antibody, electrostatic steering heterodimeric IgG1 Fc, no CH2 mutations; parental scaffold)”: the Kd in assay [7] stood at 1600 nM; in assay [19], 1530 nM; in assay [8], 6340 nM; in assay [9], 2090 nM; in assay [10] it was 0.071 nM.

In assay [30], “v12 (IIb-specific comparator, symmetrical E233D_G237D_P238D_H268D_P271G_A330R) (antibody)” registered an IIaR-Fold (affinity fold over WT v16463) of 1.4 fold and a Kd of 220 nM. In [31], this substance displayed an IIb-Fold (affinity fold over WT v16463) of 112 fold and a Kd of 13 nM. Further, in assay [32], the IIb Selectivity (IIb-Fold/IIaR-Fold) stood at 80.5. Moreover, the ELISA (% of non-competed FcγRIIb signal in presence of 10x FcγRIIa) in assay [33] is 100%.

For “Variant 32292, trastuzumab full-size antibody (chain A L235D_strat2; chain B D329*I_I332L-strat1)”, the IIb Selectivity (IIb-Fold/IIaR-Fold) in assay [26] stood at 78 fold. In assay [27], the IIb-fold (fold change in affinity over wild-type) stood at 451 fold. The IIaR-fold (fold change in affinity over wild-type) in assay [28] was determined as 6 fold. In [29], the C1q Binding (% WT) is 2 % WT.

Take “Variant 26747 (A_E272V_strat2), one-armed trastuzumab antibody with heterodimeric IgG1 Fc”: the IIaR-fold (fold change in affinity over wild-type) in assay [12] is 6 fold. For the same substance, in [13], the IIb-fold (fold change in affinity over wild-type) was found to be 89.7 fold. The substance also had an IIb Selectivity Improvement wrt Control in assay [14] of 1.1 fold. The IIb Selectivity (IIb-Fold/IIaR-Fold) in [15] was determined as 14.9 fold. The IIb-Fold wrt Control in [16] is 1 fold.

In [20], “Variant 27362, strat3_control (A_G236N_G237A / B_G236D_G237F_S239D_S267V_H268D), one-armed trastuzumab antibody” came in with a Kd of 150 nM.

For the substance “Variant 32295, trastuzumab full-size antibody (chain A P329I_strat2; chain B D329*I_I332L-strat1)”, in [26], the IIb Selectivity (IIb-Fold/IIaR-Fold) came to 82 fold. The IIb-fold (fold change in affinity over wild-type) in [27] came to 103 fold. In addition, the IIaR-fold (fold change in affinity over wild-type) in [28] was 1 fold. Further, in [29], the C1q Binding (% WT) was -1 % WT.

In the case of “Variant 16463, wild-type one-armed trastuzumab antibody (Scaffold 2)”, the IIb Selectivity in assay [1] worked out at 1. In addition, the Kd is 310 nM in [2] and 1400 nM in assay [3]. The same substance had an IIaR-fold in [4] of 1 fold. Moreover, the IIb-Fold in assay [5] stood at 1 fold.
